The target of assay [1] is YjdL Tyr113Phe (E. coli) (UniProt P39276).
Assay [2] has as its target YjdL Tyr21Phe (E. coli) (UniProt P39276).
Assay [3] has as its target YjdL Tyr25Phe (E. coli) (UniProt P39276).
Assay [4] has as its target YjdL Tyr58Phe (E. coli) (UniProt P39276).
Assay [5] has as its target YjdL from E. coli, wild type (E. coli) (UniProt P39276).
In assay [6] the target is YjdL-Ala281Phe (E. coli) (UniProt P39276).
In assay [7] the target is YjdL-Trp278Phe (E. coli) (UniProt P39276).
In assay [8] the target is YjdL from E. coli, wild type (E. coli) (UniProt P39276). The source holds these as a separate data set.
Assay [9] has as its target YjdL Tyr25Phe (E. coli) (UniProt P39276). The source holds these as a separate data set.
For assay [10], the target named is YjdL from E. coli, wild type (E. coli) (UniProt P39276). The source holds these as a separate data set.
For assay [11], the target named is YjdL-Ala281Phe (E. coli) (UniProt P39276). This is another data set of the same source.
In assay [12] the target is T1, WT-YjdL (Escherichia coli, UniProt P39276).
T1 construct: expressed in transfected cells; host or cells: E. coli BL21(DE3)pLysS, pTTQ18-yjdL, IPTG-induced
T1 sequence (P39276 1-485): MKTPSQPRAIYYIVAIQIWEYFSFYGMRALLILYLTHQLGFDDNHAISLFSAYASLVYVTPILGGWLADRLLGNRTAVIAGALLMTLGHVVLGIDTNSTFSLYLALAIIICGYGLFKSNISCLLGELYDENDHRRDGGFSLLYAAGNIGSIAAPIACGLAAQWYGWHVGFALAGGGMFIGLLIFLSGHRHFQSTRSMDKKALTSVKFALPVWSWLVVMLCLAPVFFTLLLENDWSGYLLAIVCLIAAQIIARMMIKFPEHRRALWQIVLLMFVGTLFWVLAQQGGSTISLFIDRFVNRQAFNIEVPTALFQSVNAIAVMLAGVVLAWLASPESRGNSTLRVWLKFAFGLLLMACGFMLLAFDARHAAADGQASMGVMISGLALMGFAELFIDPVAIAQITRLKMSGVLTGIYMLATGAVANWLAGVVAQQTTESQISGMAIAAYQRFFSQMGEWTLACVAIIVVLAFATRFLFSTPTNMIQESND
As to the kind of experiment: cell-based. The class given is cell-based, E. coli. To be noted: for IC50: IC50 (inhibition of β-Ala-Lys(AMCA) uptake), WT-YjdL a. The method, then:
(§1) Plasmids were transformed into E. coli BL21(DE3)pLysS cells by heat shock and transformants were selected on agar plates containing 100 µg/mL ampicillin and 34 µg/mL chloramphenicol. Single transformants were inoculated into 2 mL LB-media with antibiotics as above and grown overnight. The cultures were diluted 1∶50 in 5 mL LB-media with antibiotics as above, and at an OD600 of 0.5–0.8 protein expression was induced by the addition of 1 mM isopropyl β-D-1-thiogalactopyranoside (IPTG). […]
(§2) Uptake assays were performed as previously described, [20]. In a final assay volume of 100 µL; 0.2 mM β-Ala-Lys-N-7-amino-4-methylcoumarin-3-acetic acid (β-Ala-Lys(AMCA), Biotrend) (10 µL) and various concentrations of ligands (purchased from Bachem or Sigma-Aldrich) or uptake buffer (50 µL) were incubated with bacterial cell suspension (OD600 = 10, 40 µL) at 37°C. After 5 min, the uptake was stopped by addition of 500 µL ice-cold uptake buffer followed by immediate centrifugation and washing twice in ice-cold uptake buffer. Finally the cell pellet was resuspended in 100 µL uptake buffer, and the uptake was quantified by fluorescence measurements (excitation at 340 nm and emission at 460 nm) on a Safire 2 fluorimeter. Non-specific uptake was measured as described above on IPTG-induced E. coli BL21(DE3)pLysS cells harboring the empty pTTQ18 vector. All uptake assay experiments were reproduced at least three times independently and data analyses were performed using GraphPad Prism ver. 5.

In assay [13] the target is T2, YjdL Tyr25Phe (Escherichia coli, UniProt P39276, Y25F).
T2 construct: expressed in transfected cells; host or cells: E. coli BL21(DE3)pLysS, pTTQ18-yjdL mutant (QuikChange)
T2 sequence (P39276 1-485 Y25F): T1 sequence (P39276 1-485) with Y25F
As to the kind of experiment: β-Ala-Lys(AMCA) uptake and inhibition assay, YjdL Tyr25Phe. The class given is cell-based, E. coli. To be noted: 0.2 mM β-Ala-Lys(AMCA), 5 min incubation, pH 6.5; ±SEM, n≥3. The method, then:
(§3) Plasmids were transformed into E. coli BL21(DE3)pLysS cells by heat shock and transformants were selected on agar plates containing 100 µg/mL ampicillin and 34 µg/mL chloramphenicol. Single transformants were inoculated into 2 mL LB-media with antibiotics as above and grown overnight. The cultures were diluted 1∶50 in 5 mL LB-media with antibiotics as above, and at an OD600 of 0.5–0.8 protein expression was induced by the addition of 1 mM isopropyl β-D-1-thiogalactopyranoside (IPTG). The cells were harvested after three hours of induction by centrifugation and resuspended in uptake buffer (50 mM MES pH 6.5, 140 mM NaCl, 5.4 mM KCl, 1.8 mM CaCl2, 0.8 mM MgSO4, and 5 mM glucose).
as §2

Assay [14] deals with T3, YjdL Ala281Phe (Escherichia coli, UniProt P39276, A281F).
T3 construct: host or cells: E. coli BL21(DE3)pLysS
T3 sequence (P39276 1-485 A281F): T1 sequence (P39276 1-485) with A281F
As to the kind of experiment: β-Ala-Lys(AMCA) uptake and inhibition assay, YjdL Ala281Phe. Format: cell-based, E. coli. To be noted: for IC50: 0.2 mM β-Ala-Lys(AMCA), 5 min incubation, pH 6.5, ±SEM, n≥3. The method, then:
as §3, §2

Assay [15] concerns the target T4, WT-YdgR (Escherichia coli, UniProt P77304).
T4 construct: expressed in transfected cells; host or cells: E. coli BL21(DE3)pLysS, pTTQ18-ydgR, IPTG-induced
T4 sequence (P77304 1-500): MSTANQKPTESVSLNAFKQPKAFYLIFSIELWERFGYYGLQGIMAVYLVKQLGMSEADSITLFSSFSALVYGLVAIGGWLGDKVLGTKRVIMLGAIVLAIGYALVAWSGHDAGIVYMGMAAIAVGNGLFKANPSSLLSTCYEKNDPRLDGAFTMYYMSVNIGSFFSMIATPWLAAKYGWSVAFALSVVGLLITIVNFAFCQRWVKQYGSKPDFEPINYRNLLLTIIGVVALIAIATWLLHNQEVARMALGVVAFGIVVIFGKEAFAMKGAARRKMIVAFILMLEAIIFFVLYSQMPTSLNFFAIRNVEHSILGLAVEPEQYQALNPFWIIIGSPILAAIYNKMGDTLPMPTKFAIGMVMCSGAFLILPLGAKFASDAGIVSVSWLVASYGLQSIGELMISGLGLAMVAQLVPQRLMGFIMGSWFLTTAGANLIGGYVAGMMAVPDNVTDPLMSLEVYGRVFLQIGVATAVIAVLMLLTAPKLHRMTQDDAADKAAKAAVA
Briefly: cell-based. The class given is cell-based, E. coli. To be noted: 25 mM Tris-HCl, 50 mM MOPS pH 7.4, 0.2 mM β-Ala-Lys(AMCA), 5 min. How it is done:
as §1, §2

The results in this text go back to publication PMC3478282, “Probing the Putative Active Site of YjdL: An Unusual Proton-Coupled Oligopeptide Transporter from E. coli” (PLoS ONE, 2012).

Numbering of substitutions follows the chain as printed. Where two headings read alike, the source gives them in different places. Residues, ends and D or L forms follow the SMILES beside them.

As for Tyr-Ala (peptide), the IC50 of inhibition of β-Ala-Lys(AMCA) uptake into E. coli cells (0.2 mM substrate, 5 min, pH 6.5) in assay [1] worked out at 1.3 mM; in [2], 4.7 mM; in assay [3], 33.7 mM; in assay [5], 2.4 mM; in assay [6], 33.2 mM; in [7], 2.8 mM. Further, the IC50 of inhibition of β-Ala-Lys(AMCA) uptake into E. coli cells (0.5 mM substrate, 15 min, pH 6.5) in [4] stood at 24.1 mM; in assay [5], 2.4 mM. The β-Ala-Lys(AMCA) uptake (0.5 mM) left with 50 mM competitor, E. coli cells, pH 6.5 in assay [8] is less than 10%.

In the case of Met-Lys (peptide), the results for the IC50 of inhibition of β-Ala-Lys(AMCA) uptake into E. coli cells (0.2 mM substrate, 5 min, pH 6.5) in assay [9], in assay [10] and in assay [11] were 0.61 mM, 0.53 mM and 0.17 mM, respectively.

In the case of Tyr-Lys (peptide), the IC50 of inhibition of β-Ala-Lys(AMCA) uptake into E. coli cells (0.2 mM substrate, 5 min, pH 6.5) in assay [9] was 0.67 mM; in assay [10], 0.55 mM; in assay [11] it was 0.03 mM.

In the case of Ala-Gln (peptide), the IC50 of inhibition of β-Ala-Lys(AMCA) uptake into E. coli cells (0.2 mM substrate, 5 min, pH 6.5) is 1.1 mM in assay [1]; 1.1 mM in assay [2]; 36.1 mM in assay [3]; 0.6 mM in assay [5]; 21.7 mM in assay [6]; 0.9 mM in [7]. In addition, the IC50 of inhibition of β-Ala-Lys(AMCA) uptake into E. coli cells (0.5 mM substrate, 15 min, pH 6.5) stood at 2.5 mM in [4] and 1.9 mM in [5]. Moreover, the β-Ala-Lys(AMCA) uptake (0.5 mM) left with 50 mM competitor, E. coli cells, pH 6.5 in assay [8] is less than 10%.

Take `CSCC[C@H](N)C(=O)N[C@@H](CCCCN)C(=O)O` [Met-Lys] (H-Met-Lys-OH): the “increase of IC50 compared to the Ala-Lys value, WT-YjdL” value (“increase of IC50” for short) in assay [12] was “approximately 2 fold”. Also, the IC50 was determined as 530 ± 30 µM in [12], 610 ± 20 µM in [13] and 170 ± 10 µM in assay [14].

In the case of `NCCCC[C@H](NC(=O)[C@@H](N)Cc1ccc(O)cc1)C(=O)O` [Tyr-Lys] (H-Tyr-Lys-OH), in assay [12], the “increase of IC50” value is “approximately 2 fold” and half-maximal inhibition (IC50) required 550 ± 40 µM. The compound further gave an IC50 in [13] of 670 ± 80 µM. In assay [14], the “decrease of IC50 compared to Ala-Lys, Ala281Phe” value is “approximately 10 fold” and the IC50 is 30 µM.

Tris: the “inhibition of β-Ala-Lys(AMCA) uptake, WT-YdgR” value in assay [15] is “no significant inhibition”. Further, the “inhibition of β-Ala-Lys(AMCA) uptake, WT-YjdL” value in [12] (25 mM Tris-HCl, 50 mM MOPS pH 7.4, 0.2 mM β-Ala-Lys(AMCA), 5 min) was “weak”.

Turning to `NCCCC[C@H](NC(=O)[C@@H](N)Cc1c[nH]c2ccccc12)C(=O)O` [Trp-Lys] (H-Trp-Lys-OH), in assay [12], the “increase of IC50” value was “approximately 2 fold”. Further, the IC50 in assay [12] worked out at 600 ± 70 µM; in assay [13], 580 ± 60 µM; in [14], 90 ± 10 µM.

Trp-Lys (peptide): the IC50 of inhibition of β-Ala-Lys(AMCA) uptake into E. coli cells (0.2 mM substrate, 5 min, pH 6.5) in assay [9] was 0.58 mM; in [10] it was 0.6 mM; in [11] it was 0.09 mM.

In general, IC50 refers to the point on the concentration scale where inhibition reaches its midpoint. A low value points to greater potency.
